Assay results: patent publication US20230287117A1 (published 2023)

Experiments:
Experiment in all cases: SPR steady state
[1] = target: His-tagged human FcyRIIIA (human, UniProt P08637 17-208)
His-tagged human FcyRIIA = target: T1, His-tagged human FcyRIIA (human, UniProt P12318 36-218)
T1 chain: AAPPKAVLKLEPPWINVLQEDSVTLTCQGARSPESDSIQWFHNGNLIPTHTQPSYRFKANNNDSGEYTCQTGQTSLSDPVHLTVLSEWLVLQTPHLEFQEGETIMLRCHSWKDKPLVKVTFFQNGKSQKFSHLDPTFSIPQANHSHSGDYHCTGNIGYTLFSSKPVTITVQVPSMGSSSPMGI

His-tagged human FcyRIIB = target: T2, His-tagged human FcyRIIB (human, UniProt P31994 46-217)
T2 chain: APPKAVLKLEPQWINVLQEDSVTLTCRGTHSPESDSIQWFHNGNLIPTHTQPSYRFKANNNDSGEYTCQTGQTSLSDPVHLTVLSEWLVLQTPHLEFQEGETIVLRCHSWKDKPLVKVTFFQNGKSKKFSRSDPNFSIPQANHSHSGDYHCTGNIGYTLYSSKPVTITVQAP

Chain of His-tagged human FcyRIIIA (P08637 17-208): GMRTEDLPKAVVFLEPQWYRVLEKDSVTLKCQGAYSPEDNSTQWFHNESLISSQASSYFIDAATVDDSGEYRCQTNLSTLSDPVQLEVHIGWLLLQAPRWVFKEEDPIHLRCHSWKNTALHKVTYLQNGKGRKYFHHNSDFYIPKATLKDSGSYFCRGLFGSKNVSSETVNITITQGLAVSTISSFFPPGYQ

- Kd [1]: 140 µM
- Kd (His-tagged human FcyRIIA): 16.8 µM
- Kd (His-tagged human FcyRIIB): 2.2 µM
B1: Control Antibody A (Lot- L2), 9F7_VH_IgG4 (antibody)
constant: ASTKGPSVFPLAPCSRSTSESTAALGCLVKDYFPEPVTVSWNSGALTSGVHTFPAVLQSSGLYSLSSVVTVPSSSLGTKTYTCNVDHKPSNTKVDKRVESKYGPPCPSCPAPEFLGGPSVFLFPPKPKDTLMISRTPEVTCVVVDVSQEDPEVQFNWYVDGVEVHNAKTKPREEQFNSTYRVVSVLTVLHQDWLNGKEYKCKVSNKGLPSSIEKTISKAKGQPREPQVYTLPPSQEEMTKNQVSLTCLVKGFYPSDIAVEWESNGQPENNYKTTPPVLDSDGSFFLYSRLTVDKSRWQEGNVFSCSVMHEALHNRFTQKSLSLSLGK
